Results from publication PMC3351833 (Biochemical Journal, 2011).
acyl = not defined here

Biological target: calmodulin (recombinant rat CaM) (rat, UniProt P0DP29 2-149)
Experiment: NMR titration

- stoichiometry N: 1
B1: Cx50p^141–166 (connexin50 CaM-binding domain peptide, residues 141–166) (peptide)
peptide: acyl-SSKGTKKFRLEGTLLRTYVCHIIFKT-NH2
modifications: reading uncertain
